Assay results from patent US20150203548A1 (GOVERNMENT OF THE UNITED STATES OF AMERICA AS REPRESENTED …, published 2015).

Target: T1, Staphylococcal Enterotoxin B (SEB) (UniProt P01552 28-266)
T1 sequence: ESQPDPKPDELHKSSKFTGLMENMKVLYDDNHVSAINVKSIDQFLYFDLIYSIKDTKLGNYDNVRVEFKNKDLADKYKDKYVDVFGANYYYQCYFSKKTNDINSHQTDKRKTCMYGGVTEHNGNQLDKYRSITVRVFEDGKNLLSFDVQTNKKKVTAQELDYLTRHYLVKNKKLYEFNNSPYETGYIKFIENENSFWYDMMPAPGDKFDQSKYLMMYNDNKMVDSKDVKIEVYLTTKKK
Test: SPR on SEB-coated chip

B1: sdAb A3 lacking the disulfide (A3-ds) (VHH)
VHH: EVQLVESGGGLVQAGDSLRLSATASGRTFSRAVMGWFRQAPGKEREFVAAISAAPGTAYYAFYADSVRGRFSISADSAKNTVYLQMNSLKPEDTAVYYVAADLKMQVAAYMNQRSVDYWGQGTQVTVSSAAALEHHHHHH
binding result: binds
